Test results as given in article doi:10.1101/324103 (bioRxiv, 2018).

Molecular target: the molecule itself
Assay: SEC-MALS + AUC

B1: ammonium transporter AmtB from Escherichia coli (natural protein)
chain: APAVADKADNAFMMICTALVLFMTIPGIALFYGGLIRGKNVLSMLTQVTVTFALVCILWVVYGYSLAFGEGNNFFGNINWLMLKNIELTAVMGSIYQYIHVAFQGSFACITVGLIVGALAERIRFSAVLIFVVVWLTLSYIPIAHMVWGGGLLASHGALDFAGGTVVHINAAIAGLVGAYLIGKRVGFGKEAFKPHNLPMVFTGTAILYIGWFGFNAGSAGTANEIAALAFVNTVVATAAAILGWIFGEWALRGKPSLLGACSGAIAGLVGVTPACGYIGVGGALIIGVVAGLAGLWGVTMLKRLLRVDDPCDVFGVHGVCGIVGCIMTGIFAASSLGGVGFAEGVTMGHQLLVQLESIAITIVWSGVVAFIGYKLADLTVGLRV
Q: Which “stoichiometry N” value does the source give for B1 here?
A: Its value is 3.
